Laboratory results: the supplement of paper PMC7125110
± gives the standard error. Variants at the floor of the assay were thinned out.

B1: glmS ribozyme (parent)
chain: AUAAAAGCGCCAGAACUACAGAAAUGUAGUUGACGAGGAGGAGGUUUAUCGAAUUUUCGGCGGAUGCCUCCAAA

Columns and labels:
Details in all cases: with glucosamine-6-phosphate
[1] = variants of: B1; assay: self-cleavage kobs at 640 uM GlcN6P; higher = faster cleavage; RNA array
Outline: (§1)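 Over ~14 h at 37 °C, tiles were imaged as glucosamine-6-phosphate (40 μM to 10 mM) in HEPES/KCl/Mg(OAc)2 buffer flowed across sequenced MiSeq chips. The chips carried barcoded ribozyme variants transcribed in situ by E. coli RNA polymerase and tracked with a hybridised Cy3 probe. After normalisation to baseline and to non-cleaving reference variants, one- or two-exponential decay fits of per-tile medians gave kobs. kcat and KM followed from weighted Michaelis–Menten fits across concentrations.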

[2] = variants of: B1; assay: self-cleavage kobs at 10000 uM GlcN6P; higher = faster cleavage; RNA array
Outline: as §1

[3] = variants of: B1; assay: self-cleavage kobs at 2500 uM GlcN6P; higher = faster cleavage; RNA array
Outline: as §1

| Variant | self-cleavage kobs at 640 uM GlcN6P [1] | self-cleavage kobs at 10000 uM GlcN6P [2] | self-cleavage kobs at 2500 uM GlcN6P [3] |
| --- | --- | --- | --- |
| AUAAAAGCGGCAGAACUACAGAAAUGUAGUUGGCGAGGAGGAGGUUUAUCGAAUUUUCGGCGGAUGCCUCCAAA | < 1e-05 s⁻¹ | < 1e-05 s⁻¹ |  |
| AUAAAAGGGCCAGAACUACAGAAAUGUAGUUGACGAGGAGGAGGUUUAUUGAUUGUUCGGCGGAUGCCUCCAAA | < 1e-05 s⁻¹ |  |  |
| AUAAAAGCGCCAGAACUACAGAAAUGUAGUGGACGAGGAGGAGGUUUAUCAAAUUUUCGGCGGAUGCCUCCAAA | < 1e-05 s⁻¹ |  |  |
| AUAAAAGCGCCAGAACUACAGAAAUGUAGUUGACGAGGAGGUAGUUUAUCAAAUUUUCGGCGGAUGCUUCCAAA | < 1e-05 s⁻¹ |  |  |
| AUAAAAGCGCAUGAACUACAGAAAUGUAGUUGACGAGGAGGAGGUUAAUCGAAUUUUCGGCGGAUGCCUCCAAA | 0.000122 ± 2.6e-05 s⁻¹ |  |  |
| AUAAAAGCGCCAGAACUACAGAAAUGUAGUCGACGAAGAGGAGGUUUAUCGAAUUUUCGGCGGAUGCCUGCAAA | < 1e-05 s⁻¹ |  |  |
| AUAAAAGCGCCAGAACUACAGAAAUGUAGUUGACGAGGAGCAGGUUGAUCGAAUUUUCUGCGGAUGCCUCCAAA | < 1e-05 s⁻¹ |  | < 1e-05 s⁻¹ |
| AUAAAAGCGCUCUAACUACAGAAAUGUAGUUGACGAGUAGGAGGUUUAUCGAAUUAUCGGCGGAUGCCUCUAAA | < 1e-05 s⁻¹ |  | < 1e-05 s⁻¹ |
| AUAAAAGCGCCAGAACUACAGAAAUGUAGCUGACGAGGAGGAGGUUUAGCGAAUCUUCGGCGGAUGCCUCCAAA | < 1e-05 s⁻¹ |  |  |
| AUAAAAGUGCCGGAACUACAGAAAUGUAGUUGACGAGGAGGAGGUUUAUCGAAUUUUCGGCGGAUUCCUCCAAA | < 1e-05 s⁻¹ |  |  |
| AUAAAAGCGCCAGAACUACAGAAAUGUAGUUGACGAGGAGGAGGUUUCUCGAAUGUUCGGCGGAUGCCUCCAAA | 0.000142 ± 3.3e-05 s⁻¹ |  | 0.00018 ± 7e-05 s⁻¹ |
| AUAAAAGCGCAAGAACUACAGAAAUGUAGUUGGCGAGGAGGAGGUUUAUCAAAUUUUCGGCGGAUGCCUCUAAA | < 1e-05 s⁻¹ |  |  |
| AUAAAAGCGCCAGAACUACAGAAAUGUAGUCGACGAGGAGGAGGUUUAUCGAGUUUUCGGCGGAGGCCUCCAAA | 0.000195 ± 3.6e-05 s⁻¹ | 0.000519 ± 9.8e-05 s⁻¹ | 0.000454 ± 7.6e-05 s⁻¹ |
| AUAAAAGCUCCAGAACUACAGAAAUGUAGUUGAGGAGGAGGAGGUUUAUCGAAUUUUUGGCGGAUGCCUCCAAA | < 1e-05 s⁻¹ |  | < 1e-05 s⁻¹ |
| AUAAAAGCGCCAGAACUACAGAAAUGUAGAUGACGAGGAGGAGGUGUAUCGAAUGUUCGGCGGAUGCCUCCAAA | 0.000157 ± 3.5e-05 s⁻¹ |  | 0.000349 ± 6.6e-05 s⁻¹ |
| AUAAAUGCGCCAGAACUACAGAAAUGUAGUUGACGAGCAGGAGGUUUAUCGAAUUUUCGGUGGAUGCCUCCAAA | < 1e-05 s⁻¹ |  |  |
| AUAAAAACGCCAGAACUACAGAAAUGUAGUUGCCGAGGUGGAGGUUUAUCGAAUUUUCGGCGGAUGCCUCCAAA | < 1e-05 s⁻¹ |  |  |
| AUAAAAGCGCCGGAACUACAGAAAUGUAGUUGACGAGGAUCAGGUUUAUCGAAUUUUCGGCGGAUGCCUCCAAA | < 1e-05 s⁻¹ |  |  |
| AUAAAAGCGCCAGAACUACAGAAAUGUAGUUGACGAGGAGGAGUUUUAUCGAGUUUUCGGCGGACGCCUCCAAA | < 1e-05 s⁻¹ |  |  |
| AUAAAAGCGCCAGAACUACAGAAAUGUAGUUGACGAGGAGGAGGUUUAUCAAAUUUUCGGCGUAUGCCUGCAAA | 7.13e-05 ± 2.7e-05 s⁻¹ |  |  |
| AUAAAAGCGCCAGAACUACAGAAAUGUAGUUGAAGAGGAGGAUGUUUAUCGAAUCUUCGGCGGAUGCCUCCAAA | < 1e-05 s⁻¹ |  | < 1e-05 s⁻¹ |
| AUAAAAGCGCUAGAACUACAGAAAUGUAGUUUCCGAGGAGGAGGUUUAUCGAAUUUUCGGCGGAUGCCUCCAAA | < 1e-05 s⁻¹ |  | < 1e-05 s⁻¹ |
| AUAAAAGCGCCAGAACUACAGAAAUGUAGUUGACGAGGAGGAGGUUUAUCGAAUAUUUGGAGGAUGACUCCAAA | 8.67e-05 ± 2.1e-05 s⁻¹ |  |  |
| AUAAAGGCGCCAGAACUACAGAAAUGUAGUUGACGACGAGGAAGUCUAUCGAAUUUUCGGCGGAUGCCUCCAAA | < 1e-05 s⁻¹ |  |  |

| Variant | self-cleavage kobs at 640 uM GlcN6P [1] | self-cleavage kobs at 10000 uM GlcN6P [2] | self-cleavage kobs at 2500 uM GlcN6P [3] |
| --- | --- | --- | --- |
| AUAAAAGCAUCAGAACUACAGAAAUGUAGUUGACGAGGAGGAGGUUUAUCGAAUUUUUGGCGGAUGCCUCCAAA | < 1e-05 s⁻¹ |  |  |
| AUAAAAGCUCCCGAACUACAGAAAUGUAGUUGACGAGGAGGAGGUUUAUCCAAUUUUCGGCGGAUGUCUCCAAA | < 1e-05 s⁻¹ |  | < 1e-05 s⁻¹ |
| AUAAAAGCGCCAGAACUACAGAAAUGUAGUUGACGAGGAUGAUGUUUACCGAAUUUUCGGCGGAUGCCUCCAAA | < 1e-05 s⁻¹ |  | < 1e-05 s⁻¹ |
| AUAAAAGCGCCAGAACUACAGAAAUGUAUUUGACGAGGAGGAGGUUUAUCGUAUUUUCGGCGGAGGCGUCCAAA | 0.000163 ± 5.2e-05 s⁻¹ |  | 0.000217 ± 5.1e-05 s⁻¹ |
| AUAAACGCGCCAGCACUACAGAAAUGUAGUCGACGGGGAGGAGGUUUGUCGAAUUUUCGGCGGAUGCCUCCAAA | < 1e-05 s⁻¹ | < 1e-05 s⁻¹ |  |
| AUAAAAGCGCCAGAACUACAGAAAUGUAGUUGACGAGGAGGAGACUUAUCGAAUUUUCGGAGGAUGCCUCCAAA | < 1e-05 s⁻¹ |  | < 1e-05 s⁻¹ |
| AUAAAAGCGCCAGCACUACAGAAAUGUAGUUGAAGAGGAGGAGGUAUAUCGAAUUUUCGGCGGAUGCCUCCAAA | < 1e-05 s⁻¹ |  |  |
| AUAAAAGCGCCAGAGCUACAGAAAUGUAAUUGACGAGGAGGAGGUUUAUCGAAUUUUCGGCGCAUGCCUCCAAA | < 1e-05 s⁻¹ |  |  |
| AUAAAAGCGCCAGAACUACAGAAAUGUAGUUGACGAGGAGGAGGUUUGCCGAAUUUUCGGCGGAUACCUCCAAA | < 1e-05 s⁻¹ |  |  |
| AUAAAAGCGCCAGAACUACAGAAAUGUAGUUGGCGAGGAGGAGGUUUAUCGACUUUUCGGCGGUUGCCUCCAAA | < 1e-05 s⁻¹ |  |  |
| AUAAAAGCGCCAGAACUACAGAAAUGUACUUCACGAGGAGGAGGUUUAUCGCAUUUUCGGCGGAUGCGUCCAAA | 8.66e-05 ± 3.9e-05 s⁻¹ |  |  |
| AUAAAAGCGCCAGAACUACAGAAAUUUAGUUGACGAGGAGGAGGUUUAUCGAAUUUUCGGCGGAUGCCUCAAAA | 0.000733 ± 0.0002 s⁻¹ |  | 0.000394 ± 0.0001 s⁻¹ |
| AUAAAGGCGCCAGAACUACAGAAAUGUAGUUGACGAGGAGGAGGUUUUUCGAAUUUUCGGUGGAUGCCUCCAAA | < 1e-05 s⁻¹ |  | < 1e-05 s⁻¹ |
| AUAAAAGCGCCAGAACUACAGAAAUGUAGUUGACGAGGCGGAGGUAUAUCGAAUUGUCGGCGGAUGCCUCCAAA | 4.61e-05 ± 1.8e-05 s⁻¹ |  |  |
| AUAAAAGCUCCAGAACUACAGAAAUGUAGUUGACGAGGAGGAGGUUGAUCGAAUUUUCGGCGGAUGCAUCCAAA | < 1e-05 s⁻¹ |  |  |
| AUAAAAGCGCCAGAACUACAGAAAUGUAGUUGACGAGGAGGAGGUAUAUCGAAUUUUCGGCGGAUGCCUGCAAA | 0.000146 ± 4.1e-05 s⁻¹ | 0.000156 ± 3.1e-05 s⁻¹ | 0.00037 ± 0.00011 s⁻¹ |
| AUAAAAGCGCCAGAACUACAGAAAUGUAUUUGACGAGGAGGAGGUUUAUCGAAUUUUCGGCGGAUGUCUUCAAA | 4.16e-05 ± 1.2e-05 s⁻¹ |  | 9.35e-05 ± 1.8e-05 s⁻¹ |
| AUAAAAGCGGCAGAACUACAGAAAUGUAGUUGACGAGGAGGAGGUUUAUCGAAUUUUCGGCGGAUUCCUCCAAA | < 1e-05 s⁻¹ | < 1e-05 s⁻¹ | < 1e-05 s⁻¹ |
| AUAAAAGCGCCAGAACUACAAAAAUGUAGUUGACGAGGAGGAGGUUUAUCGAAUUUUCGGCGGAUGCCUUCAAA | 0.00594 ± 0.0022 s⁻¹ |  | 0.00398 ± 0.0016 s⁻¹ |
| AUAAAAGGGCCAGAACUACAGAAAUGUAGUUGACGAGGAGGAGGUUUAUGGAAUUUUCGGUGGUUGCCUCCAAA | 0.00078 ± 0.00019 s⁻¹ |  | 0.00023 ± 6.3e-05 s⁻¹ |
| AUAAAAGCGCCCGUACUACAGAAAUGUAGAUGACGAGGAGGAGGUUUAUCGAAUUUUCGGCGGAUGCCGCCAAA | 9e-05 ± 3.5e-05 s⁻¹ |  |  |
| AUAAAAGCGCCGGAACUACAGAAAUGUAGUUGACGAGGAGGAGGUUUAUCGAAUGUUCGGCCGAUGCCUCCAAA | < 1e-05 s⁻¹ | < 1e-05 s⁻¹ |  |
| AUAAAAGAGCCAGAACUACAGAAAUGUAGUUGACGAGGAGGAGGUUUAUCGAUUUUUAUGCGGAUGCCUCCAAA | < 1e-05 s⁻¹ |  |  |
| AUAAAAGCCCCAGAACUACAGAAAUGUAGUUGACGAGGAGGAGGUUUAUCGAGUUUUCGGCGGACGCCUCCAAA | < 1e-05 s⁻¹ |  | < 1e-05 s⁻¹ |
